Experimental data reported in patent US7127357.

How the values were obtained:
[1] = molecular target: YpSPTpSPS (CTD-S2/S5), doubly phosphorylated CTD peptide (human); experiment: fluorescence anisotropy, labeled peptide constant, protein varied
[2] = molecular target: YpSPTSPS (CTD-S2), rhodamine-labeled (human); experiment: as above
[3] = molecular target: WFYpSPFLE (Pintide), rhodamine-labeled; experiment: as above
[4] = molecular target: LYRpSPS (Cdc25c-S214), rhodamine-labeled (human); experiment: as above
[5] = molecular target: YLGpSPI (Cdc25c-S168), rhodamine-labeled (human); experiment: as above
[6] = molecular target: STSpTPR (Myt1-T455), rhodamine-labeled (human); experiment: as above
[7] = molecular target: PPApTPP (Myt1-T412), rhodamine-labeled (human); experiment: as above
[8] = molecular target: PPGpSPP (Myt1-S416), rhodamine-labeled (human); experiment: as above
[9] = molecular target: YSPTpSPS (CTD-S5), rhodamine-labeled (human); experiment: as above
[10] = molecular target: VPRpTPV (Cdc25c-T48), rhodamine-labeled (human); experiment: as above
[11] = molecular target: GSSpSPV (Wee1-S123), rhodamine-labeled (human); experiment: as above
[12] = molecular target: YpSPTpSPS (CTD-S2/S5), doubly phosphorylated CTD peptide (human); experiment: fluorescence anisotropy

Row | Substance | Kd [1] | Kd [2] | Kd [3] | Kd [4] | Kd [5] | Kd [6] | Kd [7] | Kd [8] | Kd [9] | Kd [10] | Kd [11] | fold reduction in binding affinity (against wild type Pin1) [12]
1 | isolated WW domain of human Pin1 (from UniProt Q13526 1-39) | 34 µM | 110 µM | 44 µM | 72 µM | 91 µM | 39 µM | 15 µM | 126 µM | 34 µM | 7.7 µM | – | –
2 | human Pin1 (full length, wild type) (from UniProt Q13526 1-163) (enzyme) | 10 µM | 61 µM | 17 µM | 47 µM | 69 µM | 46 µM | 12 µM | 80 µM | 30 µM | 4.9 µM | 73 µM | –
3 | Pin1 Trp-34 to Phe mutant (from UniProt Q13526 1-163) (enzyme) | – | – | – | – | – | – | – | – | – | – | – | 6 fold
4 | isolated PPIase domain of human Pin1 (from UniProt Q13526 50-163) (enzyme) | 390 µM | – | 86 µM | – | – | – | – | – | – | – | – | –
